According to patent publication US20060040319A1, “Multiple sensor-containing active modified polypeptides, preparation and uses thereof” (priority 2000, published 2006):
Entries after “also recorded” stand apart in the source; their conditions may differ.

Assays:
[1] = target: T1, GST fusion of mouse c-Abl containing only the SH2 and kinase domains (Mus musculus, UniProt P00520); assay: Kinase assay with truncated c-Abl containing only the SH2 and kinase domains; type: biochemical; settings: truncated c-Abl (SH2 and kinase domains only), over 60 min
T1 construct: a GST fusion of mouse c-Abl containing only the SH2 and kinase domains; made in house; host or cells: E. coli BL21
T1 sequence (P00520 127-493): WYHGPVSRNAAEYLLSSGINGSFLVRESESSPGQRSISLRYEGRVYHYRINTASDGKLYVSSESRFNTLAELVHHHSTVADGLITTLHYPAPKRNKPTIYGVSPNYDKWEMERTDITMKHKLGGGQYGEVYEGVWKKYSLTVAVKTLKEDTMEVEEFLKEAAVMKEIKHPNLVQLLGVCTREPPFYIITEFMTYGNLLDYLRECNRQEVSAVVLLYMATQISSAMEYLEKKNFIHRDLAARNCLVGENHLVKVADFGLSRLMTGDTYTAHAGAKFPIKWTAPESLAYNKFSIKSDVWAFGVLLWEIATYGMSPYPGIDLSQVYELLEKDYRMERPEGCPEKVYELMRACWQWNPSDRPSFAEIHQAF
Procedure: Purified Rh-(Crk-II)-Fl prepared as described in Example I was treated with either full length recombinant (Baculovirus/SF9) mouse c-Abl or a GST fusion of mouse c-Abl containing only the SH2 and kinase domains (expressed in E. coli BL21 essentially as described (19)). In a typical experiment, the appropriate c-Abl construct was incubated in reaction buffer (2 mM DTT, 0.2 mg/ml BSA, 10 mM Mg^2+, 50 mM Tris, pH 7.4, either with or without ATP (500 μM)) for 5 min at 30° C. before addition of Rh-(Crk-II)-Fl (final concentration=0.25 μM). In order to ensure that equal amounts of active c-Abl enzyme were added to each reaction, preliminary titration experiments were carried out using an optimized peptide substrate for c-Abl (EAIYAAPFAKKK (SEQ ID No:2) (20)). […] In all cases, aliquots of the reaction mixtures were removed at ˜1 min and 60 min, quenched with EDTA (final conc.=40 mM), and then analyzed by native-PAGE and/or Western blotting and fluorescence spectroscopy. […]
Fluorescence Spectroscopy. […] Excitation was at 490 nm with a 2.5 nm slit and the fluorescence emission was monitored at 520 nm and 580 nm through a 4 nm slit. […] Rh-(Crk-II)-Fl was treated with full length recombinant c-Abl and aliquots of the reaction mixture were analyzed by fluorescence spectroscopy and western blotting at ˜1 min and 60 min time-points. […]

[2] = target: T2, full length recombinant c-Abl (Mus musculus, UniProt P00520); assay: Kinase assay: phosphorylation of Rh-(Crk-II)-Fl by full length c-Abl (FRET, western blot, native PAGE); type: biochemical
T2 construct: full length recombinant (Baculovirus/SF9) mouse c-Abl; made in house; host or cells: Baculovirus/SF9
Procedure: Purified Rh-(Crk-II)-Fl prepared as described in Example I was treated with either full length recombinant (Baculovirus/SF9) mouse c-Abl or a GST fusion of mouse c-Abl containing only the SH2 and kinase domains (expressed in E. coli BL21 essentially as described (19)). In a typical experiment, the appropriate c-Abl construct was incubated in reaction buffer (2 mM DTT, 0.2 mg/ml BSA, 10 mM Mg^2+, 50 mM Tris, pH 7.4, either with or without ATP (500 μM)) for 5 min at 30° C. before addition of Rh-(Crk-II)-Fl (final concentration=0.25 μM). In order to ensure that equal amounts of active c-Abl enzyme were added to each reaction, preliminary titration experiments were carried out using an optimized peptide substrate for c-Abl (EAIYAAPFAKKK (SEQ ID No:2) (20)). For peptide inhibition studies, Rh-(Crk-II)-Fl was pre-incubated for 30 min with a high affinity ligand for the N-SH3 domain of Crk, PPPALPPKRRR-NH2 (SEQ ID No:7) (21), such that the final concentration of ligand in the kinase assay was 12 μM. In all cases, aliquots of the reaction mixtures were removed at ˜1 min and 60 min, quenched with EDTA (final conc.=40 mM), and then analyzed by native-PAGE and/or Western blotting and fluorescence spectroscopy.
Western Blotting. Standard procedures were used to probe for tyrosine phosphorylation using a mouse monoclonal anti-phosphotyrosine primary antibody (PY20, Santa Cruz Biotechnology) and a HPO-conjugated goat anti-mouse polyclonal secondary antibody (Amersham Pharmacia).
Fluorescence Spectroscopy. Experiments were conducted at 18° C. in a stirred 0.5 cm-pathlength cell using a SPEX FL3-11C fluorimeter. Samples from the reactions (50 μl) were diluted into 2 mM DTT, 0.4 mg/mL BSA, 140 mM NaCl, 50 mM Tris, pH 7.4 buffer (450 μl) for analysis. Excitation was at 490 nm with a 2.5 nm slit and the fluorescence emission was monitored at 520 nm and 580 nm through a 4 nm slit. Purified Rh-(Crk-II)-Fl was assayed for its ability to biosense Crk-II phosphorylation by the c-Abl protein tyrosine kinase. As indicated previously, phosphorylation by c-Abl leads to an intramolecular association between a phosphotyrosine motif and the Crk-II SH2 domain, which could potentially be reported by the dual-labeled Crk-II derivative (FIG. 1). Rh-(Crk-II)-Fl was treated with full length recombinant c-Abl and aliquots of the reaction mixture were analyzed by fluorescence spectroscopy and western blotting at ˜1 min and 60 min time-points. […] In contrast, when ATP was included in the reaction mixture, a phosphorylation-dependent increase in the emission intensity ratio (a decrease in FRET) was consistently observed.

T2 sequence (P00520 whole entry): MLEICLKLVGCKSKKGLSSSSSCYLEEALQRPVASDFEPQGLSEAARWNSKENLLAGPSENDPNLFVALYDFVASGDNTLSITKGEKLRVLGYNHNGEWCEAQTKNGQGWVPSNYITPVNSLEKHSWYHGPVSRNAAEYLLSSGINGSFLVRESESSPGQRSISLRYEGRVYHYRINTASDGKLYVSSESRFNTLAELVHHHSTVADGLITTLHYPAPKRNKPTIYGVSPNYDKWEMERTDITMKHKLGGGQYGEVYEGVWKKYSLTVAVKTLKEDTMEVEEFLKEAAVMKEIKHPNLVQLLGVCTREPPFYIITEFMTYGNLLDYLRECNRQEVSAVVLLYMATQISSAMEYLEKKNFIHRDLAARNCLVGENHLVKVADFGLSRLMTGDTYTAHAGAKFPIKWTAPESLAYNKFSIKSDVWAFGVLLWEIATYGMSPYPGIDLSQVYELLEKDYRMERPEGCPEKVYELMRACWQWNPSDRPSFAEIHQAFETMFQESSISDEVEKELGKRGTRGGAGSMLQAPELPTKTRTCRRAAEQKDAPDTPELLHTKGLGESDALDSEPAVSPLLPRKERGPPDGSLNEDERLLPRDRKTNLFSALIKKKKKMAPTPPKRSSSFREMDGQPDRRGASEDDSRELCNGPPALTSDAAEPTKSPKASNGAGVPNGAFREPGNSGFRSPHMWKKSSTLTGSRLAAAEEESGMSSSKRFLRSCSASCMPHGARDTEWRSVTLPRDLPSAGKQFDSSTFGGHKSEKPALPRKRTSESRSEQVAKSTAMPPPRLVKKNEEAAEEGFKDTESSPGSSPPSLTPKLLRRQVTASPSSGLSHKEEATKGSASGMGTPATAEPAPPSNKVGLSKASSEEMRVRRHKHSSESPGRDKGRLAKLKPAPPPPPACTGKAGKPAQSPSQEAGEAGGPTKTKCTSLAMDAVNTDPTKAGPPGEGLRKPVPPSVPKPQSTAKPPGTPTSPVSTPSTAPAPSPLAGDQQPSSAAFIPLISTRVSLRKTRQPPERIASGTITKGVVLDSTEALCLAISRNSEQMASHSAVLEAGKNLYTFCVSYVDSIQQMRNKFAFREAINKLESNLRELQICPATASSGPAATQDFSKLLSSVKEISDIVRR

B1: Rh-(Crk-II)-Fl: semi-synthetic mouse Crk-II adapter protein with tetramethylrhodamine and fluorescein FRET pair at the N- and C-termini (protein)
chain: KRGCAGNFDSEERSSWYWGRLSRQEAVALLQGQRHGVFLVRDSSTSPGDYVLSVSENSRVSHYIINSSGPRPPVPPSPAQPPPGVSPSRLRIGDQEFDSLPALLEFYKIHYLDTTTLIEPVARSRQGSGVILRQEEAEYVRALFDFNGNDEEDLPFKKGDILRIRDKPEEQWWNAEDSEGKRGMIPVPYVEKYRPASASVSALIGGNQEGSHPQPLGGPEPGPYAQPSVNTPLPNLQNGPIYARVIQKRVPNAYDKTALALEVGELVKVTKINVSGQWEGECNGKRGHFPFTHVRLLDQQNPDEDFSGCGXGLEVLFQ
modifications: not fully specified; tetramethylrhodamine N-terminal, fluorescein C-terminal; Protein Kinase Target
notes: semi-synthetic mouse Crk-II adapter protein with tetramethylrhodamine and fluorescein FRET pair at the N- and C-termini
phosphorylation by fluorescence and western blotting analysis [1]: did not lead to any detectable phosphorylation; also recorded: complete lack of phosphorylation | change in FRET ([2]; absence of ATP): essentially no change in FRET | phosphorylation detected with anti-phosphotyrosine monoclonal antibody (western) ([2]; absence of ATP): no Rh-(Crk-II)-Fl phosphorylation could be detected | extent of phosphorylation by native PAGE mobility ([2]; with ATP, after 1 h): completely phosphorylated | decrease in FRET (increase in Fl:Rh emission intensity ratio) ([2]; with ATP, after 60 min): ~3%
